Data: patent publication US20140087995A1 (published 2014)
Numbered stars: 1 amine (or outer) side, 2 acyl side, 3 side chain; on linkers, the order of the positions; unused ones are H or OH. Bridge positions count the residues as written; N and C are the ends. Side chains are listed from the residue outwards. Ends that are not written are not given here. * marks the point of attachment. C20 diacid = O=C(O)CCCCCCCCCCCCCCCCCCC(=O)*; γGlu = O=C(O)[C@H](CCC(=O)[*:2])N[*:1]; AEEA = NCCOCCOCC(=O)O

T1: rat amylin receptor (rat calcitonin receptor + rat RAMP 3) (rat, UniProt P32214 25-516; Q9JJ73 23-147)
T1 construct: whole, on cells; Cell membranes of transiently transfected BHK tk'ts 13 cells (Assay VI); also called rAmylin-R; rat amylin 3(a) receptor
T1 sequence (looked up) 1: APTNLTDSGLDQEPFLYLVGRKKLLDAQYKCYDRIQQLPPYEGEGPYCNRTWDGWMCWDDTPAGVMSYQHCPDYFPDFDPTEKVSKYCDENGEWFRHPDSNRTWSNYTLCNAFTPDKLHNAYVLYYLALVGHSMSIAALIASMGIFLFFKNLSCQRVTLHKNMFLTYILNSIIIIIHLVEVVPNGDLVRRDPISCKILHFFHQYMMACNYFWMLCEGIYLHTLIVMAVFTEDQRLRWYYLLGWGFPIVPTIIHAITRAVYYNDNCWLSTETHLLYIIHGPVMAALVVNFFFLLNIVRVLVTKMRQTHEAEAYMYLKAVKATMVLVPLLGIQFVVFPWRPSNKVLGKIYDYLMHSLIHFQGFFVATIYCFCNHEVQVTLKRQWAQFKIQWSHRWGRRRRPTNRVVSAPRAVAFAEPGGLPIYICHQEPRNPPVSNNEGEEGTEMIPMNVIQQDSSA
T1 sequence (looked up) 2: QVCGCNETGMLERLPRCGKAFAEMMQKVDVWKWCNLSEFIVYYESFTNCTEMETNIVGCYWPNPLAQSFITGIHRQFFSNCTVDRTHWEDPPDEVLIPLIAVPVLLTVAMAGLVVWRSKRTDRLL

T2: rat calcitonin receptor (rat, UniProt P32214 25-516)
T2 construct: whole, on cells; Cell membranes of transiently transfected BHK tk'ts 13 cells (Assay VIII); also called rCTR; rCT
T2 sequence (looked up): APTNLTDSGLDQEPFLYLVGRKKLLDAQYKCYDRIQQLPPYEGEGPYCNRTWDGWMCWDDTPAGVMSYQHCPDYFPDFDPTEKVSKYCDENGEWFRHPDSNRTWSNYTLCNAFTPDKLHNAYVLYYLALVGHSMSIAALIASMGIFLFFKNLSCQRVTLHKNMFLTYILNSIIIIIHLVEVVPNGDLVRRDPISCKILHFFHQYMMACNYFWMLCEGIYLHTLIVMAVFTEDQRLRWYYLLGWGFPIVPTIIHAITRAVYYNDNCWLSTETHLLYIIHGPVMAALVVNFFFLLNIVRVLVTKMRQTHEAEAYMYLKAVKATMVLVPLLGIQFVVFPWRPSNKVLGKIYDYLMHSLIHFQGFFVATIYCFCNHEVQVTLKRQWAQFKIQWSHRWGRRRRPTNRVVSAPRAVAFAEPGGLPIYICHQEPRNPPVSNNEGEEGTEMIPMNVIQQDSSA

T3: human calcitonin receptor (human, UniProt P30988 25-474)
T3 construct: whole, on cells; Cell membranes of a stably transfected BHK cell line (Assay VII); also called hCTR; hCT
T3 sequence (looked up): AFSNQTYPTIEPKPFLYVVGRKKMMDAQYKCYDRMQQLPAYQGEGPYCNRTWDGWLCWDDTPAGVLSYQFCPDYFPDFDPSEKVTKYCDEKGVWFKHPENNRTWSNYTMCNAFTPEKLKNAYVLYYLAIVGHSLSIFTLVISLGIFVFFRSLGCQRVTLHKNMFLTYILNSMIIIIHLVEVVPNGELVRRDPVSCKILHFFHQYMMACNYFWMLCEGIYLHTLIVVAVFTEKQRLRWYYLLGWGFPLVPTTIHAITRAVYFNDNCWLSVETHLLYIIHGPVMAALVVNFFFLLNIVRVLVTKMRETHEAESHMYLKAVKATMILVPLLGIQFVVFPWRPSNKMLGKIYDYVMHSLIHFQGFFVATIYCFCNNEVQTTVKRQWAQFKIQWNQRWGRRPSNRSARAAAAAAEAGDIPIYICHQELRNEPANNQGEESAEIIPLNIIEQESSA


Tests used:
[1] = molecular target: T1, rat amylin receptor (rat calcitonin …); experiment: SPA competition vs 125I-rat amylin, membranes with rat CTR + rat RAMP3 (Assay VI)
rat calcitonin receptor [2] = molecular target: T2, rat calcitonin receptor; experiment: SPA competition vs 125I-calcitonin, membranes with rat CTR (Assay VIII)
rat calcitonin receptor [3] = molecular target: T2, rat calcitonin receptor; experiment: ratio IC50 rat calcitonin receptor / IC50 rat amylin receptor
[4] = molecular target: T3, human calcitonin receptor; experiment: ratio IC50 human calcitonin receptor / IC50 human amylin receptor
Description: The resulting pellet was resuspended, homogenized and centrifuged (20.000 rpm, 15 min) in a buffer containing 20 mM Na-HEPES and 0.1 mM EDTA (pH 7.4, buffer 2). The resulting pellet was resuspended in buffer 2 and protein concentration was measured (BCA protein Assay, Pierce). The homogenate was kept cold during the whole procedure. The membranes were kept at −80° C. until use. The assay was performed in a 384 well Optiplate (PerkinElmer) in a total volume of 40 ul. Membranes were mixed with SPA beads. Final concentration of membranes 35 ng/μL final and SPA beads was 0.05 mg/well. Test-compounds were dissolved in DMSO and further diluted in assay buffer (50 mM Hepes, pH 7.4, 1 mM CaCl2, 5 mM MgCl₂, 0.1% OA and 0.02% Tween20). […] The final mixture was incubated with shaking at 400 rpm for 120 min at 25° C. prior to centrifugation (1500 rpm, 10 min). Samples were analyzed on TopCounter™ (Packard). The IC₅₀ was calculated using (one site binding competition analysis) GraphPad Prism5 as a measure of receptor affinity.
Membranes were prepared in the following way; the cells were rinsed with PBS and incubated with Versene for approximately 5 min before harvesting. The cells were flushed with PBS and the cell-suspension was centrifuged for 5 min at 1000 rpm. Cells were homogenized (Ultrathurrax) in a buffer containing 20 mM Na-HEPES and 10 mM EDTA (pH 7.4) and centrifuged at 20.000 rpm for 15 min. The resulting pellet was resuspended, homogenized and centrifuged (20.000 rpm, 15 min) in a buffer containing 20 mM Na-HEPES and 0.1 mM EDTA (pH 7.4, buffer 2). The resulting pellet was resuspended in buffer 2 and protein concentration was measured (BCA protein Assay, Pierce). The homogenate was kept cold during the whole procedure. The membranes were kept at −80° C. until use. Assay was performed in a 384 well Optiplate (PerkinElmer) in a total volume of 40 ul. Membranes were mixed with SPA beads.

Row | Binder | IC50 [1] [nM] | IC50 (rat calcitonin receptor [2]) [nM] | Ratio rCT/rAmylin binding (rat calcitonin receptor [3]) | Ratio hCT/hAmylin binding [4]
1 | KCNTATCATQRLANFLRHSSPNFGAIPSSTNVGHNTY (C20 diacid-gGlu on alpha-amino of the N-terminal residue; Cys2-Cys7 disulfide; C-terminal amide (as human amylin), Acylated analogue of human amylin; also called compound 40) [N^α1-[(4S)-4-carboxy-4-(19-carboxynonadecanoylamino)butanoyl]-[Arg17,Pro21,Pro27,His34]-h-amylin] | 1.5 | 69.2 | 46.2 | 31.1
2 | {C20 diacid-γGlu}-KCNTATCATQRLAEFLRHSSPNFGAIPSSTNVGSETY-NH2 (disulfide 2-7; SMILES CC[C@H](C)[C@H](NC(=O)[C@H](C)NC(=O)CNC(=O)[C@H](Cc1ccccc1)NC(=O)[C@H](CC(N)=O)NC(=O)[C@@H]1CCCN1C(=O)[C@H](CO)NC(=O)[C@H](CO)NC(=O)[C@H](Cc1c[nH]cn1)NC(=O)[C@H](CCCNC(=N)N)NC(=O)[C@H](CC(C)C)NC(=O)[C@H](Cc1ccccc1)NC(=O)[C@H](CCC(=O)O)NC(=O)[C@H](C)NC(=O)[C@H](CC(C)C)NC(=O)[C@H](CCCNC(=N)N)NC(=O)[C@H](CCC(N)=O)NC(=O)[C@@H](NC(=O)[C@H](C)NC(=O)[C@@H]1CSSC[C@H](NC(=O)[C@H](CCCCN)NC(=O)CC[C@H](NC(=O)CCCCCCCCCCCCCCCCCCC(=O)O)C(=O)O)C(=O)N[C@@H](CC(N)=O)C(=O)N[C@@H]([C@@H](C)O)C(=O)N[C@@H](C)C(=O)N[C@@H]([C@@H](C)O)C(=O)N1)[C@@H](C)O)C(=O)N1CCC[C@H]1C(=O)N[C@@H](CO)C(=O)N[C@@H](CO)C(=O)N[C@H](C(=O)N[C@@H](CC(N)=O)C(=O)N[C@H](C(=O)NCC(=O)N[C@@H](CO)C(=O)N[C@@H](CCC(=O)O)C(=O)N[C@H](C(=O)N[C@@H](Cc1ccc(O)cc1)C(N)=O)[C@@H](C)O)C(C)C)[C@@H](C)O, Acylated analogue of human amylin; also called compound 22) | 2.19 | 62.5 | 28.5 | 12.3
3 | K([AEEA-AEEA-γGlu-C20 diacid])CNTATCATQRLANFLRHSSPNFGAIPSSTNVGSETY-NH2 (disulfide 2-7; N-terminus assumed; SMILES CC[C@H](C)[C@H](NC(=O)[C@H](C)NC(=O)CNC(=O)[C@H](Cc1ccccc1)NC(=O)[C@H](CC(N)=O)NC(=O)[C@@H]1CCCN1C(=O)[C@H](CO)NC(=O)[C@H](CO)NC(=O)[C@H](Cc1c[nH]cn1)NC(=O)[C@H](CCCNC(=N)N)NC(=O)[C@H](CC(C)C)NC(=O)[C@H](Cc1ccccc1)NC(=O)[C@H](CC(N)=O)NC(=O)[C@H](C)NC(=O)[C@H](CC(C)C)NC(=O)[C@H](CCCNC(=N)N)NC(=O)[C@H](CCC(N)=O)NC(=O)[C@@H](NC(=O)[C@H](C)NC(=O)[C@@H]1CSSC[C@H](NC(=O)[C@@H](N)CCCCNC(=O)COCCOCCNC(=O)COCCOCCNC(=O)CC[C@H](NC(=O)CCCCCCCCCCCCCCCCCCC(=O)O)C(=O)O)C(=O)N[C@@H](CC(N)=O)C(=O)N[C@@H]([C@@H](C)O)C(=O)N[C@@H](C)C(=O)N[C@@H]([C@@H](C)O)C(=O)N1)[C@@H](C)O)C(=O)N1CCC[C@H]1C(=O)N[C@@H](CO)C(=O)N[C@@H](CO)C(=O)N[C@H](C(=O)N[C@@H](CC(N)=O)C(=O)N[C@H](C(=O)NCC(=O)N[C@@H](CO)C(=O)N[C@@H](CCC(=O)O)C(=O)N[C@H](C(=O)N[C@@H](Cc1ccc(O)cc1)C(N)=O)[C@@H](C)O)C(C)C)[C@@H](C)O, Acylated analogue of human amylin; also called compound 25) | 3.48 | 131 | 37.7 | 56.5

More lines, now with the values ahead:

Row | IC50 [1] [nM] | IC50 (rat calcitonin receptor [2]) [nM] | Ratio rCT/rAmylin binding (rat calcitonin receptor [3]) | Ratio hCT/hAmylin binding [4] | Binder
4 | 1.72 | 89.2 | 52 | 64.4 | KCNTATCATQRLANFLRHSSPNFGAIPSSTNVGSKTY (C20 diacid-gGlu on alpha-amino of the N-terminal residue; Cys2-Cys7 disulfide; C-terminal amide (as human amylin), Acylated analogue of human amylin; also called compound 34) [N^α1-[(4S)-4-carboxy-4-(19-carboxynonadecanoylamino)butanoyl]-[Arg17,Pro21,Pro27,Lys35]-h-amylin]
5 | 3.14 | 114 | 36.1 | 23.6 | {C20 diacid-γGlu}-KCNTATCATQRLAHFLRHSSPNFGAIPSSTNVGSETY-NH2 (disulfide 2-7; SMILES CC[C@H](C)[C@H](NC(=O)[C@H](C)NC(=O)CNC(=O)[C@H](Cc1ccccc1)NC(=O)[C@H](CC(N)=O)NC(=O)[C@@H]1CCCN1C(=O)[C@H](CO)NC(=O)[C@H](CO)NC(=O)[C@H](Cc1c[nH]cn1)NC(=O)[C@H](CCCNC(=N)N)NC(=O)[C@H](CC(C)C)NC(=O)[C@H](Cc1ccccc1)NC(=O)[C@H](Cc1c[nH]cn1)NC(=O)[C@H](C)NC(=O)[C@H](CC(C)C)NC(=O)[C@H](CCCNC(=N)N)NC(=O)[C@H](CCC(N)=O)NC(=O)[C@@H](NC(=O)[C@H](C)NC(=O)[C@@H]1CSSC[C@H](NC(=O)[C@H](CCCCN)NC(=O)CC[C@H](NC(=O)CCCCCCCCCCCCCCCCCCC(=O)O)C(=O)O)C(=O)N[C@@H](CC(N)=O)C(=O)N[C@@H]([C@@H](C)O)C(=O)N[C@@H](C)C(=O)N[C@@H]([C@@H](C)O)C(=O)N1)[C@@H](C)O)C(=O)N1CCC[C@H]1C(=O)N[C@@H](CO)C(=O)N[C@@H](CO)C(=O)N[C@H](C(=O)N[C@@H](CC(N)=O)C(=O)N[C@H](C(=O)NCC(=O)N[C@@H](CO)C(=O)N[C@@H](CCC(=O)O)C(=O)N[C@H](C(=O)N[C@@H](Cc1ccc(O)cc1)C(N)=O)[C@@H](C)O)C(C)C)[C@@H](C)O, Acylated analogue of human amylin; also called compound 30)
6 | 1.22 | 54.9 | 44.9 | 20.5 | {C20 diacid-γGlu}-KCNTATCATQRLANFLRHSSPNFGAIPSSTPVGSETY-NH2 (disulfide 2-7; SMILES CC[C@H](C)[C@H](NC(=O)[C@H](C)NC(=O)CNC(=O)[C@H](Cc1ccccc1)NC(=O)[C@H](CC(N)=O)NC(=O)[C@@H]1CCCN1C(=O)[C@H](CO)NC(=O)[C@H](CO)NC(=O)[C@H](Cc1c[nH]cn1)NC(=O)[C@H](CCCNC(=N)N)NC(=O)[C@H](CC(C)C)NC(=O)[C@H](Cc1ccccc1)NC(=O)[C@H](CC(N)=O)NC(=O)[C@H](C)NC(=O)[C@H](CC(C)C)NC(=O)[C@H](CCCNC(=N)N)NC(=O)[C@H](CCC(N)=O)NC(=O)[C@@H](NC(=O)[C@H](C)NC(=O)[C@@H]1CSSC[C@H](NC(=O)[C@H](CCCCN)NC(=O)CC[C@H](NC(=O)CCCCCCCCCCCCCCCCCCC(=O)O)C(=O)O)C(=O)N[C@@H](CC(N)=O)C(=O)N[C@@H]([C@@H](C)O)C(=O)N[C@@H](C)C(=O)N[C@@H]([C@@H](C)O)C(=O)N1)[C@@H](C)O)C(=O)N1CCC[C@H]1C(=O)N[C@@H](CO)C(=O)N[C@@H](CO)C(=O)N[C@H](C(=O)N1CCC[C@H]1C(=O)N[C@H](C(=O)NCC(=O)N[C@@H](CO)C(=O)N[C@@H](CCC(=O)O)C(=O)N[C@H](C(=O)N[C@@H](Cc1ccc(O)cc1)C(N)=O)[C@@H](C)O)C(C)C)[C@@H](C)O, Acylated analogue of human amylin; also called compound 28)
